Our source for the percent of parent values is paper PMC10410066.

Experiment [1] addresses inhibitor of nuclear factor kappa B kinase subunit beta (IKBKB), FLAG-tagged (UniProt O14920). Nature of the experiment: ELISA protein-protein interaction assay (2B7 capture, anti-FLAG detection). The conditions noted are these: lysates of HEK293T cells co-overexpressing N571 Q55 HTT WT or S13A/S16A and FLAG-tagged IKBKB; parent: est. 100; read off a plot. Background: ELISA stands for enzyme-linked immunosorbent assay.

In experiment [2] the target is N571 Q55 HTT (N-terminal huntingtin fragment 1-571 with 55 glutamines). Described as above. The settings on record: lysates of HEK293T cells co-overexpressing N571 Q55 HTT and FLAG-tagged IKBKB construct; parent: est. 100; read off a plot.

For the substance “N571 Q55 HTT (N-terminal huntingtin fragment 1-571 with 55 glutamines) S13A; S16A”, the percent of parent in experiment [1] was found to be 100%.
For the substance “inhibitor of nuclear factor kappa B kinase subunit beta (IKBKB), FLAG-tagged (from UniProt O14920) K44A”, the percent of parent in experiment [2] is 17%.
With “inhibitor of nuclear factor kappa B kinase subunit beta (IKBKB), FLAG-tagged (from UniProt O14920) S177E; S181E”, the percent of parent in experiment [2] worked out at 190%.
Take “inhibitor of nuclear factor kappa B kinase subunit beta (IKBKB), FLAG-tagged (from UniProt O14920) W739A; W741A”: in experiment [2], the percent of parent amounted to 190%.
